A short description of this data set: soluble on expression in E. coli; label from the status in PepcDB or PDB records.
As for “MEKPASKSKRKPKETSDDVDADVLPEKGLHNSDGFLFYHASFRPLTSAQHRRAEEHGIDLKTKKVFTVEESIQVFENWRKFATEHNMKLAKAPEYISPKKTDRHIFKHQEEHHFWPKLCDGLPHRPACTIKMRAISMMTSSFMENLEWSRLAEEIKAKLHTYETNDDLTMQKAQKLLEKGYAASHVAEILNVSNGKMSSMASKLRTLEARNDPTMIHAFYESTVYFGLKLKKLRRAITTNDDYRIESVRRKVRLEEIGLQLHISEQKCKDLLKIVIETIRTKYTESLEEAGLDEDEAWSKALALVDSRPPIEESQLYKALEIICKHIEKAETTGSLLSHEQLPSIIKSHGITGFQSDRSEYAYLHFRLCGLLMHQLTTGFFEHLRREFPLQIKLHCLLWSYKRLDVWEKICVEEGKTRYETVLKSEIANPLASKMTLKFLKNEKVVEWISDPRPPKNRQKAATRRLETAIESFILYSYNKFGETFKFPAKFRRILHTSKTVRSVLEVVSDPENAEFLSIKEARKTVEDASGCKIAVKIKNKRIVPKLKDESDASEDGESENSDSEDLIKHSHSIERSAFEERRDEIEKVLQRADPSKIRAKFRKKDEIPEEILLSKELRQQKRAMTRAAEKLERLEAKICSAEFIDDGSGCSYSQVDEDLLEREKKRKRKKSEASEVVIGTDQLDTAEDLQGSKKKKHAEVLEGKDHEDTGCSDSQQVMDPEVCEDLVEKEKKKKRKRKISEASEVVIGMNQMERAEDLQRSKKKKHAEILEGNDHEDSENLKKRSKKKKKRKDHDAEFDAELDLDSENLDEEPKKRKKHC”, the “soluble on expression in E. coli” value is given as “soluble”. Then “MEKPIIRGYIRENGSVGVRNYVAVIPVDDLSNSASIGVSKLIRGTVAIPHPYGRLQFGKDLDLLFHVLSGTGANPNVAAAIVIGIEENWANKVADKIAETGKPVEVFPVEGNGDLKVIEKASRKAKEFVQEASEKQRTEVDLSSLVLSIKCGESDTTSGLASNPATGYAVDKLIDYGSTVMFGETSELTGAEDIVASRIQDPVLRDKFMRIYNEYVAFIESQGVDLLGSQPTEGNIKGGLSTIEEKALGNIQKLGTKPITCVLDYLDPLGKGSSRLCFVNTSSAAAEAVTLFAAKGSVLHLFTTGQGNVVGHPIIPVVKISANPKTIATMSEHIDVDVSDLLQLKVSLKEAGERIFNYTIRVANGRLTSAEILQHEEFSPIKLYISA”, with “not soluble”. Turning to “MEKSSSNFIQNGKRDHGGKLRQYNYKLEEAEYRYFTEERLFYRRRNPVEKIAQRIPKPQIEGTFTWSDELRCNYDGNTQFLPVEALEGCLPLEKLNQHLKPGFRLEVVVRPSLDPSITTKSPEIRWFGEVTAVCGFYVAIKFVGELNRRPCWFHMLSEDIFDIGSGLKQDPAMKWLQYRPLSLLKPMQCPKFWRRGSTPAPPVPRPTEEILDEFQAELHENRISEPKIFDQLRHLAHRPSRFRLNQRVELLNYLEPTEIRVARILRILGRRLMVMVTAQDYPEDLPSVEAKDRQVQHENVEFWVDESSFFLFPVGFAMINGLRTKATEGYLEHSRRIAEGSGTEKLNLLKVGQKFELLDPLSDLRQSFCVATIRKICKTPGFLIISPDETESDDESFPIHIDNHFMHPVGYAEKFGIKLDRLAGTEPGKFKWEGYLKEKQAEKIPDEMLRPLPSKERRHMFEFGRVLEAVGQNETYWISPASVEEVHGRTVLIEFQGWDSEFSELYDMDSHDLLPAGWCEFFNFKLRHPVLPVNDPNAENGEYD”, the “soluble on expression in E. coli” value is “not soluble”.

Regarding “MEKVGEDEEKTIEEANNSTEETKSDKEEERIKGTIADQVDPVDSTEEGSTGPSNSHTVVSKDHDFSESDMEDEEQVLEFFRRNHGFSPEVTKRNNFPYVNNSERMVLQFQEDTSAETEQTNEMFHSLNDSNEILEGTKSSSASDEDTEDSSSNSDLDSSLSRYYFDGSLPVSAHVEEFETHQDESLVPKDENQVCNPNWWGMI”, the “soluble on expression in E. coli” value is reported as “not soluble”.

With “MELAVHDATEDGAGYATAASSWVVVEPEFVVDVTDIRSFVQCPRLYYLNKLSGLPLKYPVTKGTIVHEVFGDLLRGRDLEASVAQRVDEAGLELGLLGRSRAEVEADVRDNASAIEGWLQQGRLTDEDEWRSEYTLVSERFGIKGRCDAIRRGMPVELKTGKNTNREPRFHDKVQAACYALMLDEHGVPADTGTLLYTKNAAVDRSEASGDLSPAKEFSIGRGFLEFVVRERNHLAALEASDGPPTGYEADAKCDYCFEQDTCMVVSGRLDQESKAGRIGDPVPAEERAYFDELYDAIEAERGAIHDEYRKLWEQSPDERAADDRAVVGLSPAEQTELPDGRWRLTATRPGSAASKIREGDRVLASDGDPVAGRAEMARVERLDADRVEVTTDEPVSLCRLDVYPSELSVDRMLTALHDAVLKSDQRRTDLLFDRASPRFEGGDHDLIPNNDAQNAAVNRALNAEDFALVHGPPGTGKTYTIATLVQAFVARGDRVLVSAFTNRAVDNALDALRQQGHEDIVRVGTETGVRADMQDLRLDRSGDPGERAAALRSAPVVAATTATCGSRILRELEFDVVLVDEASQLTEPDTLAAINRGARFVLVGDHEQLPPVVRSGGRLSKSLFERLHETYPEASVMLDQQYRMSQRIQAFSSREFYDGQLRPASSEVAGQRLTDVGVDPGGAVHGGVTFYDVPGTDDAHVDPAEADRVADVVTAYVDAGLDPGEIGVIAPFRAQVAEIGRRTPAGVAVDTVDRFQGSSKEVIVVSFVARGTLEGPIFEDHRRVNVALSRAKKSLVLVGDERALRSEPLYDRMIDWADMELEHHHHHH”, the “soluble on expression in E. coli” value was “not soluble”. Then “MELDDALDELSDSLGQRQPDPDENKPLDDKVKEKIKAEHSEKLGERDDTIPPEYRHLLDNDGKDKPEKPLTKNTEKPGQDQDPIDALSEDLDSCP”, with “soluble”; and “MELGLYTFADVNPNPADGRGPEGARRLRELLEEIELADQVGLDVFGLGEHHRPDYVVSSPSTVLAAAAVKTKNIRLTSAVSVLSSDDPVRVFQQFSTVDLLSNGRAEIMAGRGSFIESYPLFGYDLEDYDVLFAEKLDLLLALREQEVVTWSGTKHPAINGRGVYPRPLQERLPVWIAVGGTPQSVARAGAMGLPVALAIIGGEYRRFAPLFDLYHEAARRAGQEKTKLRTSINVHGFIADTTDKAADQFYGPQAEVMNRIGRERGWGPTNRAHFDAARGPEGNLFLGEPELVAEKIIKAHGVFKNDRFLLQMAIGLMPHDQIMRGIELYGTKVAPLVRKELTGSADPVKATA”, with “soluble”.

Turning to “MELINKDTLQIKEFISSLDSMLDGIESIVKHYKPHLNGERFLSNNEVSKKLNVSLRTLQEWRDTGLIPFIQIKGKIIYRQSDIDKLLQKHYFEGWKE”, the “soluble on expression in E. coli” value is on record as “not soluble”. For “MELLPQGQRNNTQVTFEDQQKINEFSKLIMRKDAIAQELSLQREEKEYLDDVSLEIELIDEDEPVQYKVGDLFIFMKQSKVTAQLEKDAERLDNKIETLEDKQRDIDSRLDALKAILYAKFGDNINLER”, the “soluble on expression in E. coli” value is recorded as “not soluble”. As for “MELQQLPQHVRDAFHAPNTPPRQLGVAWDYGWRVGNVAFSQVIHPDRSAWSARVRDKLQPQGLRVVRPLKSTDGRYINAGWRANSFEEGTLARRVDETVVAALRLDTALADIDVPDSFSEPDSHDLFSLADHSAWAPEPMVALGVTSDAEAVFLNPAQLTAQRLLPKIVLLLRDIDAPIQVTHADMFATTIYSGNQMPVVTDLVGVARPYGYTAAVCIVDALLAGAVDEGIIDRFSHIQHRDQLLLRALVYRIAVHALHPESTSNTGTNLEWVSQTIMSRASVTL”, the “soluble on expression in E. coli” value is on record as “soluble”. On to “MELRVGNRYRLGRKIGSGSFGDIYLGTDIAAGEEVAIKLECVKTKHPQLHIESKIYKMMQGGVGIPTIRWCGAEGDYNVMVMELLGPSLEDLFNFCSRKFSLKTVLLLADQMISRIEYIHSKNFIHRDVKPDNFLMGLGKKGNLVYIIDFGLAKKYRDARTHQHIPYRENKNLTGTARYASINTHLGIEQSRRDDLESLGYVLMYFNLGSLPWQGLKAATKRQKYERISEKKMSTPIEVLCKGYPSEFATYLNFCRSLRFDDKPDYSYLRQLFRNLFHRQGFSYDYVFDWNMLKFGASRAADDAERERRDREERLRHSRNPATRGLPSTASGRLRGTQEVAPPTPLTPTSHTANTSPRPVSGMERERKVSMRLHRGAPVNISSSDLTGRQDTSRMSTSQIPGRVASSGLQSVVHR”, for which the “soluble on expression in E. coli” value is given as “not soluble”. In the case of “MELSRGASAPDPDDVRPLKPCLLRRNHSRDQHGVAASSLEELRSKACELLAIDKSLTPITLVLAEDGTIVDDDDYFLCLPSNTKFVALACNEKWTYNDSDGGTAWVSQESFEADEPDSRAGVKWKNVARQLKEDLSSIILLSEEDLQALIDIPCAELAQELCQSCATVQGLQSTLQQVLDQREEARQSKQLLELYLQALEKEGNILSNQKESKAALSEELDAVDTGVGREMASEVLLRSQILTTLKEKPAPELSLSSQDLESVSKEDPKALAVALSWDIRKAETVQQACTTELALRLQQVQSLHSLRNLSARRSPLPGEPQRPKRAKRDSS”, the “soluble on expression in E. coli” value was “soluble”. For “MELVHGISTHFIQSKKFKTNKITVRFTAPLSLDTIAGHMLSASMLETANQMYPTSQDLRRHLASLYGTDMSTNCFRRGQSHIIELTFTYVRDEFLSRKNVLTSQILELVKETLFSPVVVDNGFDPALFEIEKKQLLASLAADMDDSFYFAHKELDKLFFHDERLQLEYSDLRNRILAETPQSSYSCFQEFLANDRIDFFFLGDFNEVEIQNVLESFGFKGRKGDVKVQYCQPYSNILQEGMVRKNVGQSILELGYHYCSKYGDEQHLPMIVMNGLLGGFAHSKLFTNVRENAGLAYTISSELDLFSGFLRMYAGINRENRNQARKMMNNQLLDLKKGYFTEFELNQTKEMIRWSLLLSQDNQSSLIERAYQNALFGKSSADFKSWIAKLEQIDKDAICRVANNVKLQAIYFMEGIE”, the “soluble on expression in E. coli” value is reported as “not soluble”. Consider “MELYDTEEQQVEAIKDWWKENGKAVIFGAVIGLGGLFGWRYYQDSVVAAQEAASQSYSKAMDALQAKGIESEGTIQTFIDANKETEYAVLAAMQLAKAQVDAGQLDEALAQLEWAKGATKDAALKPLLTFRVARLQAEQGQFDDALTQLTSIQEKSWAGRVAELRGDILMRKGDSAAAYAAYTEAQQAEDASQTLQMKLDDLAK”, for which the “soluble on expression in E. coli” value is listed as “not soluble”.

Regarding “MENKEKIFNAQHPLSNVNARSITYRSGGKSPKSPRRVDEENKTDEELGDALGISHRCDECDEMMKFETWVERQDAILECGHGYCKKCIPNIKKDAHTLTKCPVVAVKCRIPNWYQTGQAAKPSHRKSEAARKEYSTKAKLWNFEYKGRPLVVSLRRDATYGDLETSLSMLLNIDLKTNMILIHLPHSYNGADVNYFMKADDSLTNGPYEKDTKLSHLRHPKIAALSLEVTEKKTPSSETPSKENPKSPGPLDSNK”, the “soluble on expression in E. coli” value was “not soluble”. In the case of “MENLKKYLEVAKIAALAGGQVLKENFGKVKKENIEEKGEKDFVSYVDKTSEERIKEVILKFFPDHEVVGEEMGAEGSGSEYRWFIDPLDGTKNYINGFPIFAVSVGLVKGEEPIVGAVYLPYFDKLYWGAKGLGAYVNGKRIKVKDNESLKHAGVVYGFPSRSRRDISIYLNIFKDVFYEVGSMRRPGAAAVDLCMVAEGIFDGMMEFEMKPWDITAGLVILKEAGGVYTLVGEPFGVSDIIAGNKALHDFILQVAKKYMEVAV” it was “soluble”. In the case of “MENMIVIMAGGRSSRMGAEKPILKVNGKPMILRVYEESTKVGETLVAISKNTPKTRELCIKEGIPLIETPGEGYVEDVRYLLKELGSFVSVSADLPFVKACDIAEVKKAFDGKTSLTGVLPLSKVPTDLRPVVYKGYVIVGLNGVGFEGEKFYELSNPLLALNVNTPEELKLANRIAKLIGLEHHHHHH” it was “not soluble”; in that of “MENRYSVHPEQVKRFTTEELRSHFLMDSLFTENKLTMYYSHEDRVVIGGAAPGQSELKLDAGDFLKTDFFLERREIGIINVGQPGAVRVGDDEYVLQTKDFLYIGMGNQDVSFSSLNGEKAKFYFVSACAHKSYPTQKAALSELTPDRLGDDAASNVRSLYKVIHQDGIKSCQLMMGITMLDQNNNWNTMPAHVHDRRMEAYLYLDLEKDSKVFHFMGQPDETRHLVVGNEQAVLSPAWSIHSGAGTSNYSFVWAMAGENYTFTDMDLIPMDGLK”, “not soluble”.

For the origin of these results see the DeepSol protein solubility set.
